These results are taken from patent US20190309284A1, “METHODS AND KITS FOR DYNAMIC TARGETED HYPERMUTATION” (Massachusetts Institute of Technology, priority 2018, published 2019).

The conditions of data set [1]: promoter strength, Registry of Standard Biological Parts (Anderson collection); cited from earlier work.
In data set [2] the test system is E. coli genome. The experiment in a line: Off-target mutagenesis, rifampicin resistance assay. In kind it is cell-based. To be noted: 24 h growth. How it is done: (§1) Mutation assay: To test mutagenesis rates, the control and mutagenic strains (Strep^R) carrying reporter plasmids (Amp^R) were streaked out on LB agar with 100 μg/mL streptomycin and 100 μg/mL ampicillin and grown at 37° C. for 24 hours. Then single colonies were picked in triplicate for each sample and grown in 5 mL LB with 100 μg/mL streptomycin,100 μg/mL ampicillin and 25 mM arabinose (with 10 μg/mL chloramphenicol if the strain contains MP6) at 37° C., 250 r.p.m. for 24 hours. Then 1 mL aliquots of each overnight were pelleted at 6000×g for 3 minutes and resuspended in 1 mL LB to remove arabinose. Then 50 μL of each resuspension was plated on LB agar plates with 50 μg/mL tetrazolium chloride and 200 μg/mL kanamycin, 20 μg/mL tetracycline, 100 μg/mL fosfomycin or 100 μg/mL rifampicin unless otherwise stated. 50 μL of a 100,000-fold dilution of each culture was also plated on LB agar with 100 μg/mL streptomycin, 100 μg/mL ampicillin and 50 μg/mL tetrazolium chloride. After incubating the plates at 37° C. for 48 hours, they were imaged by inverting the plates onto transparencies and scanning on a document scanner at a resolution of 400 d.p.i. The colonies were then counted using the software OpenCFU (3.9.0) (Geissmann Q., PLoS One. 2013; 8(2): e54072), with minimum colony radius set to 3, the maximum colony radius set to 50 and the regular threshold set to 4.
(§2) Mutation Assay: To assess mutagenesis rates, the control (Δung, rApo1, drApo1, and drApo1−T7; TABLE 8) and mutagenic strains (MutaT7 and MP6; TABLE 8) (Strep^R) carrying reporter plasmids (AmpR) were streaked on LB agar with 100 μg/mL streptomycin and 100 μg/mL ampicillin and grown at 37° C. for 24 h in order to obtain clones. Single colonies were picked in triplicate for each sample and used to inoculate 5 mL LB with 100 μg/mL streptomycin, 100 μg/mL ampicillin, and 25 mM arabinose (with 10 μg/mL chloramphenicol for the MP6 strain, TABLE 8), then shaken at 250 r.p.m. and 37° C. for 24 h to accumulate mutations during growth. 1 mL aliquots of each culture were pelleted at 6000×g for 3 min and resuspended in 1 mL LB to remove arabinose. Each resuspension was plated on LB agar plates with 50 μg/mL tetrazolium chloride (a metabolic contrast dye for visualizing colonies) and the antibiotics indicated below to analyze mutation rates and viability: • 50 μL of a 100,000-fold dilution of each resuspension was plated on LB agar with 100 μg/mL streptomycin, 100 μg/mL ampicillin, and 50 μg/mL tetrazolium chloride. For samples from the MP6 strain, owing to lower growth of that strain, 50 μL of a 10,000-fold dilution of each resuspension was plated to obtain a more accurate count. The colony counts from these plates were used to calculate the cell viability (i.e., the number of live, ampicillin resistant cells) in CFU/mL for each sample (FIG. 13D). • 50 μL of each resuspension was plated on LB agar plates with 200 μg/mL kanamycin and 50 μg/mL tetrazolium chloride. The colony counts from these plates were used to calculate the number of kanamycin resistant mutants in CFU/mL for each sample (FIG. 13E). The number of kanamycin resistant mutants in CFU/mL was divided by the number of live ampicillin resistant cells in CFU/mL for each sample to obtain the kanamycin resistant mutation frequency (FIG. 13B). • 50 μL of each resuspension was plated on LB agar plates with 20 μg/mL tetracycline and 50 μg/mL tetrazolium chloride. The colony counts from these plates were used to calculate the number of tetracycline resistant mutants in CFU/mL for each sample. The number of tetracycline resistant mutants in CFU/mL was divided by the number of live ampicillin resistant cells in CFU/mL for each sample to obtain the tetracycline resistant mutation frequency (FIG. 13B). • 50 μL of each resuspension was plated on LB agar plates with 100 μg/mL rifampicin and 50 μg/mL tetrazolium chloride. […]

Data set [3] has as its system Tet^R gene with inactive ACG start codon downstream of Kan^R on reporter plasmid. The experiment in a line: Start codon reversion mutation assay, tetracycline resistance (downstream of target). It counts as cell-based, E. coli. To be noted: 24 h growth. How it is done:
as §1, §2

The subject of another data set is E. coli. The experiment in a line: Cell viability (live ampicillin resistant cells) in mutation assay. In kind it is cell-based. To be noted: 24 h growth. As to the method: as §1
Mutation Assay: To assess mutagenesis rates, the control (Δung, rApo1, drApo1, and drApo1−T7; TABLE 8) and mutagenic strains (MutaT7 and MP6; TABLE 8) (Strep^R) carrying reporter plasmids (AmpR) were streaked on LB agar with 100 μg/mL streptomycin and 100 μg/mL ampicillin and grown at 37° C. for 24 h in order to obtain clones. Single colonies were picked in triplicate for each sample and used to inoculate 5 mL LB with 100 μg/mL streptomycin, 100 μg/mL ampicillin, and 25 mM arabinose (with 10 μg/mL chloramphenicol for the MP6 strain, TABLE 8), then shaken at 250 r.p.m. and 37° C. for 24 h to accumulate mutations during growth. […]

The subject of data set [4] is Kan^R gene with ACG in place of ATG start codon on reporter plasmid. The experiment in a line: Start codon reversion mutation assay, kanamycin resistance (on-target). In kind it is cell-based, E. coli. The settings on record: 24 h growth. As to the method: as §1, §2
Data set [5] relates to E. coli genome. The experiment in a line: Off-target mutagenesis, fosfomycin resistance assay. In kind it is cell-based. To be noted: 24 h growth. How it is done: as §1, §2
Setting [6] is: reporter plasmid No T7 promoter + filler DNA.
[7] abbreviates: reporter plasmid T7 promoter + filler DNA.
Where [8] appears, read: reporter plasmid T7 promoter + terminator array.

“BBa_J23110: Anderson collection promoter, SEQ ID NO: 12 (DNA TTTACGGCTAGCTCAGTCCTAGGTACAATGCTAGC; listed as DNA, chemistry not fully specified)”: the “Measured Strength” value in data set [1] is listed as 0.33.
Turning to “BBa_J23100: Anderson collection promoter, SEQ ID NO: 2 (DNA TTGACGGCTAGCTCAGTCCTAGGTACAGTGCTAGC; listed as DNA, chemistry not fully specified)”, the “Measured Strength” value in data set [1] was 1.
“BBa_J23102: Anderson collection promoter, SEQ ID NO: 4 (DNA TTGACAGCTAGCTCAGTCCTAGGTACTGTGCTAGC; listed as DNA, chemistry not fully specified)”: the “Measured Strength” value in data set [1] is 0.86.
On to “BBa_J23101: Anderson collection promoter, SEQ ID NO: 3 (DNA TTTACAGCTAGCTCAGTCCTAGGTATTATGCTAGC; listed as DNA, chemistry not fully specified)”, for which the “Measured Strength” value in data set [1] is recorded as 0.70.
For “BBa_J23105: Anderson collection promoter, SEQ ID NO: 7 (DNA TTTACGGCTAGCTCAGTCCTAGGTACTATGCTAGC; listed as DNA, chemistry not fully specified)”, in data set [1], the “Measured Strength” value is reported as 0.24.
In the case of “BBa_J23118: Anderson collection promoter, SEQ ID NO: 20 (DNA TTGACGGCTAGCTCAGTCCTAGGTATTGTGCTAGC; listed as DNA, chemistry not fully specified)”, in data set [1], the “Measured Strength” value is 0.56.
Turning to “BBa_J23115: Anderson collection promoter, SEQ ID NO: 17 (DNA TTTATAGCTAGCTCAGCCCTTGGTACAATGCTAGC; listed as DNA, chemistry not fully specified)”, in data set [1], the “Measured Strength” value is 0.15.
For “BBa_J23112: Anderson collection promoter, SEQ ID NO: 14 (DNA CTGATAGCTAGCTCAGTCCTAGGGATTATGCTAGC; listed as DNA, chemistry not fully specified)”, the “Measured Strength” value in data set [1] is recorded as 0.00.
For the molecule “BBa_J23109: Anderson collection promoter, SEQ ID NO: 11 (DNA TTTACAGCTAGCTCAGTCCTAGGGACTGTGCTAGC; listed as DNA, chemistry not fully specified)”, the “Measured Strength” value in data set [1] is reported as 0.04.
On to “BBa_J23113: Anderson collection promoter, SEQ ID NO: 15 (DNA CTGATGGCTAGCTCAGTCCTAGGGATTATGCTAGC; listed as DNA, chemistry not fully specified)”, for which the “Measured Strength” value in data set [1] is 0.01.
In the case of “BBa_J23111: Anderson collection promoter, SEQ ID NO: 13 (DNA TTGACGGCTAGCTCAGTCCTAGGTATAGTGCTAGC; listed as DNA, chemistry not fully specified)”, the “Measured Strength” value in data set [1] is recorded as 0.58.
On to “BBa_J23114: Anderson collection promoter, SEQ ID NO: 16 (DNA TTTATGGCTAGCTCAGTCCTAGGTACAATGCTAGC; listed as DNA, chemistry not fully specified)”, for which, in data set [1], the “Measured Strength” value was 0.10.
Consider “BBa_J23106: Anderson collection promoter, SEQ ID NO: 8 (DNA TTTACGGCTAGCTCAGTCCTAGGTATAGTGCTAGC; listed as DNA, chemistry not fully specified)”, for which the “Measured Strength” value in data set [1] is recorded as 0.47.
As to “BBa_J23103: Anderson collection promoter, SEQ ID NO: 5 (DNA CTGATAGCTAGCTCAGTCCTAGGGATTATGCTAGC; listed as DNA, chemistry not fully specified)”, in data set [1], the “Measured Strength” value was 0.01.
Consider “BBa_J23108: Anderson collection promoter, SEQ ID NO: 10 (DNA CTGACAGCTAGCTCAGTCCTAGGTATAATGCTAGC; listed as DNA, chemistry not fully specified)”, for which the “Measured Strength” value in data set [1] is on record as 0.51.
In the case of “BBa_J23104: Anderson collection promoter, SEQ ID NO: 6 (DNA TTGACAGCTAGCTCAGTCCTAGGTATTGTGCTAGC; listed as DNA, chemistry not fully specified)”, the “Measured Strength” value in data set [1] is listed as 0.72.
As for “BBa_J23117: Anderson collection promoter, SEQ ID NO: 19 (DNA TTGACAGCTAGCTCAGTCCTAGGGATTGTGCTAGC; listed as DNA, chemistry not fully specified)”, in data set [1], the “Measured Strength” value was 0.06.
For the molecule “BBa_J23107: Anderson collection promoter, SEQ ID NO: 9 (DNA TTTACGGCTAGCTCAGCCCTAGGTATTATGCTAGC; listed as DNA, chemistry not fully specified)”, the “Measured Strength” value in data set [1] is on record as 0.36.
For “BBa_J23116: Anderson collection promoter, SEQ ID NO: 18 (DNA TTGACAGCTAGCTCAGTCCTAGGGACTATGCTAGC; listed as DNA, chemistry not fully specified)”, the “Measured Strength” value in data set [1] is recorded as 0.16.

B1: drApoI (protein, UniProt P38483 1-229, looked up, variant E63Q)
C->U-editing enzyme APOBEC-1: MSSETGPVAVDPTLRRRIEPHEFEVFFDPRELRKETCLLYEINWGGRHSIWRHTSQNTNKHVQVNFIEKFTTERYFCPNTRCSITWFLSWSPCGECSRAITEFLSRYPHVTLFIYIARLYHHADPRNRQGLRDLISSGVTIQIMTEQESGYCWRNFVNYSPSNEAHWPRYPHLWVRLYVLELYCIILGLPPCLNILRRKQPQLTFFTIALQSCHYQRLPPHILWATGLK
With B1, the “Rif resistance Frequency” value in the data set with E. coli genome [2] (setting [6]) is on record as 4.5E−7; in the data set on E. coli genome [2] (setting [7]), 3.0E−7; with E. coli genome [2] (setting [8]), 3.4E−7. The figures for the “Rif resistant CFU/mL” value in the data set on E. coli genome [2] (setting [6]), in the data set with E. coli genome [2] (setting [7]) and in the data set on E. coli genome [2] (setting [8]) were 7.6E+2 CFU/mL, 4.0E+2 CFU/mL and 5.9E+2 CFU/mL, respectively. In addition, the “Tet resistance Frequency” value in data set [3] (setting [6]) was 1.1E−7; in data set [3] (setting [7]) it was 4.6E−7; in data set [3] (setting [8]), 2.1E−7. For the same molecule, the “Tet resistant CFU/mL” value in data set [3] (setting [6]) turned out to be 1.8E+2 CFU/mL; in data set [3] (setting [7]), 6.3E+2 CFU/mL; in data set [3] (setting [8]), 3.7E+2 CFU/mL. The “Amp resistant CFU/mL (cell viability)” value is given as 1.6E+9 CFU/mL with E. coli (setting [6]), 1.3E+9 CFU/mL in the data set on E. coli (setting [7]) and 1.8E+9 CFU/mL in the data set on E. coli (setting [8]). The “Kan resistance Frequency” value in data set [4] (setting [6]) was determined as 3.8E−8; in data set [4] (setting [7]), 5.2E−7; in data set [4] (setting [8]) it was 6.6E−7. Further, the results for the “Kan resistant CFU/mL” value in data set [4] (setting [6]), in data set [4] (setting [7]) and in data set [4] (setting [8]) were 6.0E+1 CFU/mL, 6.5E+2 CFU/mL and 1.2E+3 CFU/mL, respectively. Moreover, the entries for the “Fos resistance Frequency” value with E. coli genome [5] (setting [6]), in the data set with E. coli genome [5] (setting [7]) and in the data set on E. coli genome [5] (setting [8]) were 2.0E−6, 2.7E−6 and 1.9E−6, respectively. Further, the “Fos resistant CFU/mL” value in the data set on E. coli genome [5] (setting [6]) is given as 3.3E+3 CFU/mL; in the data set with E. coli genome [5] (setting [7]), 3.5E+3 CFU/mL; with E. coli genome [5] (setting [8]), 3.4E+3 CFU/mL.
